Results: patent publication US20230295324A1

What was measured:
[1] = molecular target: human OX40 on cells (CHO-K1/hu OX40) (human) (UniProt P43489); experiment: cell-based or functional assay
[2] = molecular target: human OX40 on cells (CHO-K1/hu OX40) (human) (UniProt P43489); experiment: FACS, CHO-K1/hu OX40 cells

Chain of human OX40 on cells (CHO-K1/hu OX40) (human) (P43489 29-277): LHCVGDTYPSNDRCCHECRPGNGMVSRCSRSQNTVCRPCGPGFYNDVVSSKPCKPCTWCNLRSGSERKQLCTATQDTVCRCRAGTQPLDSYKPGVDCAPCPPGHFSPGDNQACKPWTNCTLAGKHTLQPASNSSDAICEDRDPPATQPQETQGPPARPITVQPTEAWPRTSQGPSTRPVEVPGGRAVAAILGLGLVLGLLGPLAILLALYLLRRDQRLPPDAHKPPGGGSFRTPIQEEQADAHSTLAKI

hIgG1 (antibody)
Maximum fluorescence signal value, HEK293/OX40/NF-kb luciferase reporter [1]: 2530 luminescence
EC50 [2]: 71 nM
Maximum MFI [2]: 6900 MFI
